Test results as given in doi:10.1101/2023.05.11.540447v1.

Legend:
purified protein [1] = substrate: CC(=O)N[C@H]1[C@@H](OP(=O)(O)OP(=O)(O)OC[C@H]2O[C@@H](n3ccc(=O)[nH]c3=O)[C@H](O)[C@@H]2O)O[C@H](CO)[C@@H](O)[C@@H]1O; assay: purified protein; settings: UDP-GlcA fixed at 2.5 mM, Mg2+, 37 °C, GDN detergent
purified protein [2] = substrate: O=C(O)[C@H]1O[C@H](OP(=O)(O)OP(=O)(O)OC[C@H]2O[C@@H](n3ccc(=O)[nH]c3=O)[C@H](O)[C@@H]2O)[C@H](O)[C@@H](O)[C@@H]1O; assay: purified protein; settings: UDP-GlcNAc fixed at 2.5 mM, Mg2+, 37 °C, GDN detergent

B1: Xl-HAS-1 (Xenopus laevis) (protein)
chain: MKEKAAETMEIPEGIPKDLEPKHPTLWRIIYYSFGVVLLATITAAYVAEFQVLKHEAILFSLGLYGLAMLLHLMMQSLFAFLEIRRVNKSELPCSFKKTVALTIAGYQENPEYLIKCLESCKYVKYPKDKLKIILVIDGNTEDDAYMMEMFKDVFHGEDVGTYVWKGNYHTVKKPEETNKGSCPEVSKPLNEDEGINMVEELVRNKRCVCIMQQWGGKREVMYTAFQAIGTSVDYVQVCDSDTKLDELATVEMVKVLESNDMYGAVGGDVRILNPYDSFISFMSSLRYWMAFNVERACQSYFDCVSCISGPLGMYRNNILQVFLEAWYRQKFLGTYCTLGDDRHLTNRVLSMGYRTKYTHKSRAFSETPSLYLRWLNQQTRWTKSYFREWLYNAQWWHKHHIWMTYESVVSFIFPFFITATVIRLIYAGTIWNVVWLLLCIQIMSLFKSIYACWLRGNFIMLLMSLYSMLYMTGLLPSKYFALLTLNKTGWGTSGRKKIVGNYMPILPLSIWAAVLCGGVGYSIYMDCQNDWSTPEKQKEMYHLLYGCVGYVMYWVIMAVMYWVWVKRCCRKRSQTVTLVHDIPDMCV
Purified protein [1]
  Km: 470 µM
Purified protein [2]
  Km: 370 µM
